The term Tm denotes the temperature at which the thermal transition is half complete.

For 66 substances, Tm results are on record in the array DNA melting data of Ke et al..

The series can be described thus: melting temperature; melt of duplexes. Conditions: sodium 0.0675 M; strand 1 µM.
Take “CGACGTGCCGTATGTGCTG+CAGCACATGGGGCACGTCG (((((((((..((((((((+))))))))..)))))))))”: the Tm amounted to 57.1 °C.
For the substance “CGACGTGCTAGATGTGCTG+CAGCACATTCGGCACGTCG ((((((((...((((((((+))))))))...))))))))”, the Tm is 52.1 °C.
Regarding “CGACGTGCTGTATGTGCTG+CAGCACATGATGCACGTCG ((((((((...((((((((+))))))))...))))))))”, the Tm stood at 51.3 °C.
On to “CGACGTGCCCCATGTGCTG+CAGCACATTGCGCACGTCG ((((((((.(.((((((((+)))))))).).))))))))”, for which the Tm turned out to be 48.2 °C.
For “CGACGTGCGATATGTGCTG+CAGCACATAATGCACGTCG ((((((((..(((((((((+)))))))))..))))))))”, the Tm stood at 54 °C.
The same measure for “CGACGTGCGTGATGTGCTG+CAGCACATTCTGCACGTCG ((((((((...((((((((+))))))))...))))))))”: 51.8 °C; for “CGACGTGCTGCATGTGCTG+CAGCACATGGGGCACGTCG ((((((((..(((((((((+)))))))))..))))))))”: 57 °C.
Take “CGACGTGCTAAATGTGCTG+CAGCACATGTAGCACGTCG ((((((((((.((((((((+)))))))).))))))))))”: the Tm was 55.7 °C.
“CGACGTGCGCGATGTGCTG+CAGCACATACTGCACGTCG ((((((((...((((((((+))))))))...))))))))”: the Tm came to 50.3 °C.
As for “CGACGTGCATGATGTGCTG+CAGCACATGTTGCACGTCG (((((((((..((((((((+))))))))..)))))))))”, the Tm stood at 52.2 °C.
As for “CGACGTGCTGAATGTGCTG+CAGCACATGAAGCACGTCG (((((((((..((((((((+))))))))..)))))))))”, the Tm came out at 59.3 °C.
As for “CGACGTGCTTTATGTGCTG+CAGCACATCCCGCACGTCG ((((((((...((((((((+))))))))...))))))))”, the Tm is 46.8 °C.
Then “CGACGTGCAATATGTGCTG+CAGCACATGCGGCACGTCG ((((((((...((((((((+))))))))...))))))))”, with 49.7 °C; and “CGACGTGCCAGATGTGCTG+CAGCACATGCAGCACGTCG ((((((((...((((((((+))))))))...))))))))”, with 51.2 °C.
For “CGACGTGCAGTATGTGCTG+CAGCACATTGAGCACGTCG ((((((((...((((((((+))))))))...))))))))”, the Tm was determined as 49.1 °C.
On to “CGACGTGCAAAATGTGCTG+CAGCACATTCAGCACGTCG ((((((((..(((((((((+)))))))))..))))))))”, for which the Tm was found to be 52.1 °C.
For “CGACGTGCGTGATGTGCTG+CAGCACATAAGGCACGTCG ((((((((.(.((((((((+)))))))).).))))))))”, the Tm came to 52.7 °C.
Take “CGACGTGCACTATGTGCTG+CAGCACATGTTGCACGTCG (((((((((..((((((((+))))))))..)))))))))”: the melting temperature (Tm) was 48.9 °C.
Consider “CGACGTGCCCGATGTGCTG+CAGCACATTGCGCACGTCG ((((((((.(.((((((((+)))))))).).))))))))”, for which the Tm is 51.2 °C.
Then “CGACGTGCCCCATGTGCTG+CAGCACATTTTGCACGTCG ((((((((...((((((((+))))))))...))))))))”, with 46.6 °C.
Then “CGACGTGCGTAATGTGCTG+CAGCACATACGGCACGTCG ((((((((...((((((((+))))))))...))))))))”, with 52.6 °C; and “CGACGTGCCTAATGTGCTG+CAGCACATTATGCACGTCG ((((((((.((((((((((+)))))))))).))))))))”, with 54 °C; and “CGACGTGCTGTATGTGCTG+CAGCACATGTTGCACGTCG ((((((((...((((((((+))))))))...))))))))”, with 50.4 °C.
For “CGACGTGCAATATGTGCTG+CAGCACATCGCGCACGTCG ((((((((...((((((((+))))))))...))))))))”, the Tm was 47.4 °C.
Consider “CGACGTGCTGTATGTGCTG+CAGCACATGACGCACGTCG ((((((((...((((((((+))))))))...))))))))”, for which the Tm came to 47.9 °C.
As to “CGACGTGCGAGATGTGCTG+CAGCACATTGGGCACGTCG ((((((((...((((((((+))))))))...))))))))”, the Tm worked out at 51.9 °C.
The same measure for “CGACGTGCACCATGTGCTG+CAGCACATGAGGCACGTCG ((((((((..(((((((((+)))))))))..))))))))”: 53.9 °C; for “CGACGTGCGTGATGTGCTG+CAGCACATTTAGCACGTCG ((((((((...((((((((+))))))))...))))))))”: 53.6 °C; for “CGACGTGCTTGATGTGCTG+CAGCACATACTGCACGTCG ((((((((...((((((((+))))))))...))))))))”: 50.4 °C.
With “CGACGTGCCCGATGTGCTG+CAGCACATCTAGCACGTCG ((((((((..(((((((((+)))))))))..))))))))”, the Tm was 52.9 °C.
Consider “CGACGTGCCAAATGTGCTG+CAGCACATAGAGCACGTCG ((((((((...((((((((+))))))))...))))))))”, for which the Tm was 49.1 °C.
As for “CGACGTGCTAGATGTGCTG+CAGCACATGCGGCACGTCG ((((((((...((((((((+))))))))...))))))))”, the Tm was determined as 50.3 °C.
For the substance “CGACGTGCACCATGTGCTG+CAGCACATAGGGCACGTCG ((((((((.(.((((((((+)))))))).).))))))))”, the midpoint of thermal melting (Tm) was determined as 51.5 °C.
The same measure for “CGACGTGCTAAATGTGCTG+CAGCACATGAAGCACGTCG (((((((((..((((((((+))))))))..)))))))))”: 54.6 °C; for “CGACGTGCAGCATGTGCTG+CAGCACATTCGGCACGTCG ((((((((.(.((((((((+)))))))).).))))))))”: 49.7 °C; for “CGACGTGCCGTATGTGCTG+CAGCACATAGAGCACGTCG ((((((((..(((((((((+)))))))))..))))))))”: 53.1 °C.
As to “CGACGTGCTACATGTGCTG+CAGCACATGTAGCACGTCG (((((((((((((((((((+)))))))))))))))))))”, the Tm is 63.6 °C.
Consider “CGACGTGCCTTATGTGCTG+CAGCACATCGAGCACGTCG ((((((((...((((((((+))))))))...))))))))”, for which the midpoint of thermal melting (Tm) is 48.3 °C.
Regarding “CGACGTGCCCTATGTGCTG+CAGCACATCTAGCACGTCG ((((((((...((((((((+))))))))...))))))))”, the Tm turned out to be 48 °C.
Regarding “CGACGTGCCAAATGTGCTG+CAGCACATGGCGCACGTCG ((((((((...((((((((+))))))))...))))))))”, the Tm came out at 51.2 °C.
In the case of “CGACGTGCTTGATGTGCTG+CAGCACATACGGCACGTCG ((((((((...((((((((+))))))))...))))))))”, the Tm is 49.2 °C.
For “CGACGTGCGCGATGTGCTG+CAGCACATTCAGCACGTCG ((((((((...((((((((+))))))))...))))))))”, the Tm amounted to 51.7 °C.
The same measure for “CGACGTGCCGTATGTGCTG+CAGCACATTATGCACGTCG ((((((((...((((((((+))))))))...))))))))”: 48.6 °C; for “CGACGTGCATAATGTGCTG+CAGCACATGTCGCACGTCG ((((((((...((((((((+))))))))...))))))))”: 52.2 °C; for “CGACGTGCCGCATGTGCTG+CAGCACATGCCGCACGTCG ((((((((.((((((((((+)))))))))).))))))))”: 58.9 °C.
For the substance “CGACGTGCGGAATGTGCTG+CAGCACATTTTGCACGTCG ((((((((..(((((((((+)))))))))..))))))))”, the Tm came out at 55.2 °C.
Regarding “CGACGTGCTGAATGTGCTG+CAGCACATTCTGCACGTCG ((((((((.((((((((((+)))))))))).))))))))”, the Tm came to 59.2 °C.
“CGACGTGCACCATGTGCTG+CAGCACATTCAGCACGTCG ((((((((...((((((((+))))))))...))))))))”: the Tm was determined as 42.6 °C.
In the case of “CGACGTGCTTTATGTGCTG+CAGCACATATGGCACGTCG ((((((((..(((((((((+)))))))))..))))))))”, the Tm amounted to 51.6 °C.
As for “CGACGTGCAGTATGTGCTG+CAGCACATTCAGCACGTCG ((((((((.(.((((((((+)))))))).).))))))))”, the Tm came out at 51.1 °C.
Then “CGACGTGCCATATGTGCTG+CAGCACATGTGGCACGTCG ((((((((((.((((((((+)))))))).))))))))))”, with 60.3 °C; and “CGACGTGCCCAATGTGCTG+CAGCACATGATGCACGTCG ((((((((...((((((((+))))))))...))))))))”, with 49.7 °C; and “CGACGTGCGCCATGTGCTG+CAGCACATGGTGCACGTCG ((((((((.((((((((((+)))))))))).))))))))”, with 62.5 °C.
On to “CGACGTGCTCCATGTGCTG+CAGCACATAAAGCACGTCG (((((((((..((((((((+))))))))..)))))))))”, for which the Tm amounted to 50.9 °C.
Consider “CGACGTGCATCATGTGCTG+CAGCACATCCAGCACGTCG ((((((((...((((((((+))))))))...))))))))”, for which the Tm was 46.6 °C.
For “CGACGTGCCTGATGTGCTG+CAGCACATTACGCACGTCG ((((((((.(.((((((((+)))))))).).))))))))”, the Tm amounted to 49 °C.
Take “CGACGTGCACGATGTGCTG+CAGCACATGGAGCACGTCG ((((((((.(.((((((((+)))))))).).))))))))”: the midpoint of thermal melting (Tm) was determined as 50.5 °C.
On to “CGACGTGCGGGATGTGCTG+CAGCACATGCTGCACGTCG ((((((((.(.((((((((+)))))))).).))))))))”, for which the Tm worked out at 56.9 °C.
Then “CGACGTGCTGTATGTGCTG+CAGCACATTCCGCACGTCG ((((((((.(.((((((((+)))))))).).))))))))”, with 50.1 °C; and “CGACGTGCCGTATGTGCTG+CAGCACATGCTGCACGTCG ((((((((.(.((((((((+)))))))).).))))))))”, with 51.2 °C; and “CGACGTGCTACATGTGCTG+CAGCACATCCTGCACGTCG ((((((((...((((((((+))))))))...))))))))”, with 48.3 °C.
The same measure for “CGACGTGCTGTATGTGCTG+CAGCACATGCGGCACGTCG ((((((((.(.((((((((+)))))))).).))))))))”: 55.7 °C; for “CGACGTGCGGGATGTGCTG+CAGCACATCTGGCACGTCG ((((((((..(((((((((+)))))))))..))))))))”: 57.1 °C.
Turning to “CGACGTGCTGTATGTGCTG+CAGCACATGCCGCACGTCG ((((((((.(.((((((((+)))))))).).))))))))”, the Tm came out at 52.8 °C.
As for “CGACGTGCTCGATGTGCTG+CAGCACATTTGGCACGTCG ((((((((...((((((((+))))))))...))))))))”, the Tm was found to be 50.3 °C.
For “CGACGTGCTTAATGTGCTG+CAGCACATCTTGCACGTCG ((((((((...((((((((+))))))))...))))))))”, the Tm amounted to 48.9 °C.
